Values of other authors, collected in paper PMC8538444.

Biological target: SP-BN N-terminal saposin-like segment of the SP-B proprotein (Homo sapiens) (UniProt P07988)
Chain of UniProt P07988 (P07988 65-147): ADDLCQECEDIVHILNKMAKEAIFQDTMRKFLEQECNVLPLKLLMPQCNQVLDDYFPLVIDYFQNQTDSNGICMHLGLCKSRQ

Kd: 400 nM
Substance: SP-A (from UniProt Q8IWL2)
